Experiment [1] concerns the target T1, human FRα on cells (human, UniProt P15328 25-234).
T1 construct: Transiently expressed on HEK293-6e, CHO-S or HEK293 microarray cells, or endogenous on JEG-3, HEC-1-A, IGROV-1, OVCAR-3, H2110, KB-HeLa and T-47D cells; also called human folate receptor alpha; FOLR1
The experiment is described as follows: apparent Kd, flow cytometry on JEG-3 cells (endogenous FRα), as in Example 16. As to the method:
(§1) Briefly, cells were seeded at 50,000 cells/well in V-bottom 96-well plates and treated with antibody for 24 hours at 4° C. to prevent internalization. […] Following incubation and washing, fluorescence was detected by flow cytometry on a BD LSRFortessa™ Cell Analyzer (BD Biosciences, Franklin Lake, NJ) with 1,000 minimum events collected per well. AF647/APC-A GeoMean (fluorescence signal geometric mean, proportional to anti-Human AF647 binding) in live cell population was plotted using GraphPad Prism Version 9 (GraphPad Software, San Diego, CA).

Experiment [2] deals with T1, human FRα on cells. Put plainly: apparent Kd, flow cytometry on IGROV-1 cells (endogenous FRα), as in Example 16. Here is the method:
as §1

In experiment [3] the target is T2, recombinant His-tagged human FRα (ACROBiosystems) (human, UniProt P15328 25-233).
T2 construct: also called hFRα; hFRα antigen; not shown: His tag
Put plainly: BLI (Octet RED96) as in Example 8: antibody captured, His-tagged hFRα as analyte, mean of n=2. Here is the method:
(§2) The assay buffer used was KB buffer (kinetics buffer, composed of PBS pH 7.4, 0.1% BSA, 0.02% Tween 20, 0.05% sodium azide) supplemented with 0.06% Tween 20 and in some instances also with 1% BSA. The experiment was conducted at 30° C. with a shake speed of 1000 rpm.
(§3) Data analysis was performed using Data Analysis Software 9.0 (ForteBio, Fremont CA). The reference-subtracted binding curves were globally fitted to the 1:1 interaction model to generate the binding kinetic parameters kₒₙ, koff, and the dissociation constant KD.

Experiment [4] deals with T2, recombinant His-tagged human FRα …. The experiment is described as follows: SPR (Biacore T200): hFRα amine-coupled to CM5 chip at high antigen density, one-armed antibody injected, 1:1 Langmuir fit, mean of n=2. As to the method:
(§4) CM5 Series S sensor chip, Biacore™ amine coupling kit (NHS, EDC and 1 M ethanolamine), and 10 mM sodium acetate buffers were purchased from GE Healthcare Life Science (Mississauga, ON, Canada). PBS running buffer with 0.05% Tween20 (PBST) was purchased from Teknova Inc. (Hollister, CA). Recombinant human FRα was purchased from ACRObiosystems (Newark, DE).
(§5) Screening of the variants for binding to hFRα antigen was conducted in two steps: capture of hFRα onto surface, followed by injection of three to five concentrations of variant. The hFRα surface was prepared on a CM5 Series S sensor chip by standard amine coupling methods as described by the manufacturer (GE Healthcare Life Science, Mississauga, ON, Canada). The immobilization of the hFRα was performed using Biacore™ T200 immobilization wizard with an amine coupling method aiming for resonance units (RUs) ranging from 5 to 200 RUs. Using multi-cycle kinetics, three to five concentrations of a two-fold dilution series of samples starting at 300 nM with a blank buffer control were injected at 50 uL/min for 180s with a 600s dissociation phase, resulting in a set of sensorgrams with a buffer blank reference. The hFRα surface was regenerated to prepare for the next injection cycle by one pulse of 10 mM glycine/HCl pH 1.5 for 30s at 30 uL/min. Blank-subtracted sensorgrams were analyzed using Biacore™ T200 Evaluation Software v3.0. The blank-subtracted sensorgrams were then fit to the 1:1 Langmuir binding model.

Experiment [5] shares this target. The experiment is described as follows: SPR (Biacore T200): hFRα amine-coupled to CM5 chip at medium antigen density, one-armed antibody injected, 1:1 Langmuir fit, mean of n=2. As to the method: as §4, §5
Experiment [6] has the same target. The experiment is described as follows: SPR (Biacore T200): hFRα amine-coupled to CM5 chip at medium-low antigen density, one-armed antibody injected, 1:1 Langmuir fit, mean of n=2. Here is the method: as §4, §5
For experiment [7] the target is unchanged. Put plainly: BLI (Octet RED96); end of the range tied to v35305 by Table 20.1. As to the method: as §2, §3
Experiment [8] has the same target. Put plainly: BLI (Octet RED96): antibody on anti-human IgG Fc capture biosensor, His-tagged hFRα as analyte, 1:1 global fit, mean of n=2. As to the method: as §2, §3
The target in experiment [9] is T3, FCGR1A (human, UniProt P12314).
T3 construct: overexpressed on reverse-transfected HEK293 cells, fixed; One of the FcgR receptors that the text names only as a group
The experiment is described as follows: Retrogenix cell microarray, fixed cell confirmation screen, HEK293 cells overexpressing the protein, v36675 at 20 µg/mL, detection with AF647 anti-hIgG H+L; the text calls FcgR signals Fc-domain mediated. Here is the method: (§6) Fluorescent images were analysed and quantitated (for transfection) using ImageQuant™ software (Version 8.2; GE Healthcare, Chicago, IL). A protein hit was defined as a duplicate spot showing an increased signal compared to background levels and was identified by visual inspection using the images gridded on the ImageQuant™ software. Hits were classified as strong, medium, weak or very weak by visual inspection by two experienced scientists based on the intensity of the duplicate spots.

For experiment [10], the target named is T4, FCGR2A (human, UniProt P12318).
T4 construct: overexpressed on reverse-transfected HEK293 cells, fixed; One of the FcgR receptors that the text names only as a group
T4 sequence (receptor chain, looked up): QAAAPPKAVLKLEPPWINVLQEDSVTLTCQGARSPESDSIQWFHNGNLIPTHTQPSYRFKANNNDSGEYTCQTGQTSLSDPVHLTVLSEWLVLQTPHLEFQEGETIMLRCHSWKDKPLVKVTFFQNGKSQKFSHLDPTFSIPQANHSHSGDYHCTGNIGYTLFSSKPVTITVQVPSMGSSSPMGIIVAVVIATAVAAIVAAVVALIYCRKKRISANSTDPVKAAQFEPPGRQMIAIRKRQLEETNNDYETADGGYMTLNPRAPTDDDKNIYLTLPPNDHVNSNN
The experiment is described as above. As to the method: as §6

Experiment [11] concerns the target T2, recombinant His-tagged human FRα …. Put plainly: BLI (Octet RED96); end of the range tied to v35348 by Table 20.1. As to the method: as §2, §3
Experiment [12] concerns the target T1, human FRα on cells. Put plainly: apparent Kd, flow cytometry, CHO-S cells transiently expressing human FRα, 24 h at 4°C. As to the method:
Briefly, CHO-S cells were transfected for −24 hours to transiently express human or cynomolgus monkey FRα, 1 ug DNA per 1 million cells. Following transfection, cells were seeded at 50,000 cells/well in V-bottom 96-well plates and treated with antibody for 24 hours at 4° C. to prevent internalization. […] Following incubation and washing, fluorescence was detected by flow cytometry on a BD LSRFortessa™ Cell Analyzer (BD Biosciences, Franklin Lake, NJ).

Substitutions are numbered along the chain they refer to.

T2 sequence (P15328 25-233 limits assumed): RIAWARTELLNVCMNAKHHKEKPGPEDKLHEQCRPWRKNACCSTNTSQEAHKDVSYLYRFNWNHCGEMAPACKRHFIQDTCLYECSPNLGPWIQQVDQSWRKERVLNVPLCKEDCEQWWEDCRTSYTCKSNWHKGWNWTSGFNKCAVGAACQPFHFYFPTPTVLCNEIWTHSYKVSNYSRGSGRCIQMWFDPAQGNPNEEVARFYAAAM
T1 sequence (P15328 25-234 limits assumed): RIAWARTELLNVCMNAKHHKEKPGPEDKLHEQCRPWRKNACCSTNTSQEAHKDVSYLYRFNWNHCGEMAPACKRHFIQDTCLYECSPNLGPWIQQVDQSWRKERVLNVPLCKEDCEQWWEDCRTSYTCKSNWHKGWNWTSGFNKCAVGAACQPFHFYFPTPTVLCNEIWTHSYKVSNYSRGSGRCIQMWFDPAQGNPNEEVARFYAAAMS
T3 sequence (P12314 16-374 limits assumed): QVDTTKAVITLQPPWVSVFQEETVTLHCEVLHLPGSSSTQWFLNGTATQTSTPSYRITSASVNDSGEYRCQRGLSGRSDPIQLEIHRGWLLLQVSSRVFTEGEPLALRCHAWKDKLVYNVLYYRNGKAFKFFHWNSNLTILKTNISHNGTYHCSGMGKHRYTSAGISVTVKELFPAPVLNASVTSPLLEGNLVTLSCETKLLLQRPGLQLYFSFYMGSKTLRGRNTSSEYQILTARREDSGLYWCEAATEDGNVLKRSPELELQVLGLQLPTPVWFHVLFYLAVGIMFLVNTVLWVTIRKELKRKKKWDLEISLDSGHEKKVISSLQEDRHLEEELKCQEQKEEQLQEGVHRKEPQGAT

B1: v35356 (antibody, human IgG1, kappa, V domains shown)
VH: EVQLLESGGGLVQPGGSLRLSCAVSGFSLSSYGVSWVRQAPGKGLEWIGAVNSGGSAYYADSFKGRSTISRDNSKNTVYLQMNSLRAEDTAVYYCARSGSGYPMDYHPIWGQGTLVTVSS
VL: DYQMTQSPSSVSASVGDRVTITCRASQSIGDWLAWYQQKPGKAPKLLIYEASTLASGVPSRFSGSGSGTDFTLTISSVQPEDAATYYCQQGYGRWHILNIFGGGTKVEVKR
Turning to B1, the Kd worked out at 0.44 nM in experiment [1], 1.31 nM in experiment [2] and 4.98 nM in experiment [3].

B2: v32597 (antibody, V domains shown)
VH: B1 VH with F63V, H107L, P108A
VL: DYQMTQSPSSVSASVGDRVTITCRASQSIGDWLAWYQQKPGKAPKLLIYEASTLASGVPSRFSGSGSGTDFTLTISSVQPEDAATYYCQQGYGRSNVDNIFGGGTKVEVK
notes: One-armed antibody (OAA) format, equivalent of v30384; also called OAA v30384 equivalent; one-armed antibody equivalent of v30384
Consider B2, for which the results for the Kd in experiment [4], in experiment [5] and in [6] were 143 nM, 139 nM and 146 nM, respectively.

B3: v35305 (antibody, human IgG1, kappa, V domains shown)
VH: B1 VH with S31L, F63V, H107L, P108A
VL: B1 VL with G30W, D31Y, W95S, H96N, I97V, L98D
With B3, in experiment [7], the “fold improvement of affinity over the parental humanized antibody v30384” value came to 12 fold. For the same molecule, in experiment [3], the Kd was determined as 10.8 nM.

B4: v31425 (antibody, human IgG1, kappa)
heavy: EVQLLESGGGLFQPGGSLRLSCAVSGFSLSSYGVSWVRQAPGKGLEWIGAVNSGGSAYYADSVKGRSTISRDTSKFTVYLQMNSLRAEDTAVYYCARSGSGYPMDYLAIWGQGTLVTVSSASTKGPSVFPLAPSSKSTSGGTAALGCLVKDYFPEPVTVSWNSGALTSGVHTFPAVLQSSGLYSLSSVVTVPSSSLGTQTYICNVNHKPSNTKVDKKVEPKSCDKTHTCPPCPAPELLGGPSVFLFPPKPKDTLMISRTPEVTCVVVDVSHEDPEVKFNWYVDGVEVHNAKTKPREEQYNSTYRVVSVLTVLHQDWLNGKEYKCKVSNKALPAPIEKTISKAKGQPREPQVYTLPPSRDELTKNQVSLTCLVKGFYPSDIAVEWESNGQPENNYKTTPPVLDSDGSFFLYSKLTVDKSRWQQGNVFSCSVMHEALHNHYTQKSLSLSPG
light: DYQMTQSPSSVSASVGDRVTITCRASQSIGDWLAWYQQKPGKAPKLLIYEASTLASGVPSRFSGSGSGTDFTLTISSVQPEDAATYYCQQGYGRSNVDNIFGGGTKVEVKRTVAAPSVFIFPPSDEQLKSGTASVVCLLNNFYPREAKVQWKVDNALQSGNSQESVTEQDSKDSTYSLSSTLTLSKADYEKHKVYACEVTHQGLSSPVTKSFNRGEC
notes: Humanized IgG1/kappa, HomoFc; also called 3fH4L
For B4, the Kd in [8] was determined as 160 nM.

B5: v36675 (antibody, human IgG1, kappa)
heavy: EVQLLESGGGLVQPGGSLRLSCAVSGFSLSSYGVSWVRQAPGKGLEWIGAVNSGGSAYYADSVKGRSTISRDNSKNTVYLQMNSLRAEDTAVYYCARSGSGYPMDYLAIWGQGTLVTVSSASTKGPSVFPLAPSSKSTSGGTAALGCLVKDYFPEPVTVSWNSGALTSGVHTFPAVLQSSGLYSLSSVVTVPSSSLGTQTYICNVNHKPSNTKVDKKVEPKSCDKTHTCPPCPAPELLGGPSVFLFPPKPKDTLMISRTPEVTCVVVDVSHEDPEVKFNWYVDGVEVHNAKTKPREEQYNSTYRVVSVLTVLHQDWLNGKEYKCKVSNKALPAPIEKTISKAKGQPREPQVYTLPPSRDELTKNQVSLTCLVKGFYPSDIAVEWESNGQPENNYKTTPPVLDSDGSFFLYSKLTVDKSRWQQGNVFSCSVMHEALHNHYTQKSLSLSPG
light: B4 light
notes: Same paratopes as v30384 but HomoFc instead of HetFc; also called humanized variant v36675
In the case of B5, the binding result in experiment [9] and in experiment [10] was “binds” in each case.

B6: v35348 (antibody, human IgG1, kappa, V domains shown)
VH: B1 VH with S31L
VL: B1 VL
Regarding B6, the “fold improvement of affinity over the parental humanized antibody v30384” value in [11] worked out at 58 fold. In experiment [3], the Kd is 2.2 nM.

B7: v32598 (antibody, V domains shown)
VH: B1 VH with L4V, S62W, F63A, H107L, P108A
VL: B2 VL
notes: One-armed antibody (OAA) format, equivalent of v30399; also called OAA v30399 equivalent; one-armed antibody equivalent of v30399
With B7, the Kd was 82 nM in experiment [4], 80.8 nM in experiment [5] and 91.5 nM in experiment [6].

B8: Palivizumab (anti-RSV) (v22277) (antibody, V domains shown)
VH: QVTLRESGPALVKPTQTLTLTCTFSGFSLSTSGMSVGWIRQPPGKALEWLADIWWDDKKDYNPSLKSRLTISKDTSKNQVVLKVTNMDPADTATYYCARSMITNWYFDVWGAGTTVTVSS
VL: DIQMTQSPSTLSASVGDRVTITCKCQLSVGYMHWYQQKPGKAPKLLIYDTSKLASGVPSRFSGSGSGTEFTLTISSLQPDDFATYYCFQGSGYPFTFGGGTKLEIK
Take B8: the Kd in experiment [12] is greater than 50 nM.

B9: v32596 (antibody, V domains shown)
VH: QSVKESEGGLFKPTDTLTLTCTVSGFSLSSYGVSWVRQAPGNGLEWIGAVNSGGSAYYANWAKSRSTITRNTNLFTVTLKMTSLAVADTATYFCARSGSGYPMDYLAIWGPGTLVTVSS
VL: AYDMTQTPASVEVAVGGTVTIKCQASQSIGDWLAWYQQKPGQPPRLLIYEASTLASGVPSRFSGSGSGTQFTLTISGVECADAATYYCQQGYGRSNVDNIFGGGTEVVVK
notes: One-armed antibody (OAA) format, said to be the equivalent of the FSA v23924; also called OAA v23924 equivalent; one-armed antibody equivalent of v23924
Take B9: the values for the Kd in experiment [4], in experiment [5] and in experiment [6] were 30 nM, 30.3 nM and 37.9 nM, respectively.
